Results from patent publication US20080014583.

Experiments:
[1] = system: T1, COP1-interaction-defective VPmt mutant Flag-TRB3
T1 sequence: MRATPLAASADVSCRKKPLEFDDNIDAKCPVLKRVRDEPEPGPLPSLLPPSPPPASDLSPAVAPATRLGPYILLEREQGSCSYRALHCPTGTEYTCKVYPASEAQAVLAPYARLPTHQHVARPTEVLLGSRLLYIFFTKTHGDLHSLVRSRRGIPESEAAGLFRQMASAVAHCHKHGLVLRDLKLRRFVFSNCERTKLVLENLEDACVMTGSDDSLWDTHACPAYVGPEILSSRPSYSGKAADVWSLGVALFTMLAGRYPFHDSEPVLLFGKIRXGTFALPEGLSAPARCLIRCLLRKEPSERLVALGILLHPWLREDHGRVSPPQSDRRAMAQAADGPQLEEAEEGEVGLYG

Flag-tagged TRB3 = system: T2, Flag-tagged TRB3
T2 sequence: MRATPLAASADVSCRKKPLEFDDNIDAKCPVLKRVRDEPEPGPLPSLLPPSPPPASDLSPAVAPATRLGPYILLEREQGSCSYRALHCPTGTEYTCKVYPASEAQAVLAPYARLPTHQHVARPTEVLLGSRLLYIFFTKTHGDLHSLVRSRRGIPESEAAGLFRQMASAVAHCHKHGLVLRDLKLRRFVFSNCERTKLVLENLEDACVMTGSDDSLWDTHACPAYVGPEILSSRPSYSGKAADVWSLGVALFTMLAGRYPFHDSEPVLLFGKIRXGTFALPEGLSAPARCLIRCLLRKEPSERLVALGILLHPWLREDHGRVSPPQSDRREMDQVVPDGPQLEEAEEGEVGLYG

With “HA-tagged COP1 (Constitutive Photomorphogenic Protein 1)” the “degradation of TRB3 protein after removal of MG132” value [1] was “COP1+DET1 promoted degradation of wild-type but not VPmt TRB3 protein”, the “ubiquitination of TRB3, MS analysis” value [1] was “COP1 promotes ubiquitination of wild-type but not COP1-interaction defective (VPmt) TRB3 at 3 major sites” and the “degradation of TRB3 protein after removal of MG132” value (Flag-tagged TRB3) was “COP1+DET1 promoted degradation of wild-type but not VPmt TRB3 protein”. For the same substance, the “ubiquitination of TRB3, MS analysis” value (Flag-tagged TRB3) was “COP1 promotes ubiquitination of wild-type but not COP1-interaction defective (VPmt) TRB3 at 3 major sites”.
